Paper PMC2824750

How the values were obtained:
[1] = target: in vitro translated 35S-labelled Ehmeth, full length (TNT-Ehmeth) (E. histolytica)
[2] = target: calmodulin, histidine, hemagglutin (CHH)-tagged-Ehmeth (E. histolytica); experiment: co-IP; anti-HA immunoprecipitation from nuclear lysate of E. histolytica trophozoites expressing a CHH-tagged protein, HNTG buffer (20 mM Hepes pH 7.5, 150 mM NaCl, 0.1% Triton, 10% glycerol), 4°C; blot with anti-enolase; trophozoites grown in regular medium or starved of glucose for 12 hours

B1: GST-Ehenolase (enzyme)
chain: MSIQKVHAREILDSRGNPTIEVEITTGKGMFRSCVPSGASTGVHEAVELRDGDKKRYGGKGVLKAVENVNTIIGPALLGKNVLNQAELDEMMIKLDGTNNKGKLGANAILGCSMSICRAAAAEKGLPLYKYLAELTGHKEMTMPVPCFNVINGGAHAGNALAMQEFMICPTGATNFHEALRMAAETYQCLKVVIKAKYGQDATNVGDEGGFAPNVSGAREALDLLVEAIAKAGYTGKIEIAMDCAASEFYNEETKKYDLGKKIPADKKDPSLVKDVDGLIAEYVDYGKHYPIASIEDPFAEDDWAAWNKFTVEHGNFQIVGDDLLVTNPARVQMAMDKNACNSVLIKVNQIGTLTETFKTIKMAQEKGWGVMASHRSGETEDTFIADLVVGLNCKQIKTGAPCRSERLCKYNQLMRIEEELGNIPYAGKNWRNSTA
[1]
  inhibition of the tRNA^Asp methyltransferase activity of recombinant Ehmeth (0.4 nmol) by GST-Enolase (2 nmol): 60 % inhibition

B2: endogenous enolase of E. histolytica trophozoites (enzyme)
chain: MSIQKVHAREILDSRGNPTIEVEITTGKGMFRSCVPSGASTGVHEAVELRDGDKKRYGGKGVLKAVENVNTIIGPALLGKNVLNQAELDEMMIKLDGTNNKGKLGANAILGCSMSICRAAAAEKGLPLYKYLAELTGHKEMTMPVPCFNVINGGAHAGNALAMQEFMICPTGATNFHEALRMAAETYQCLKVVIKAKYGQDATNVGDEGGFAPNVSGAREALDLLVEAIAKAGYTGKIEIAMDCAASEFYNEETKKYDLGKKIPADKKDPSLVKDVDGLIAEYVDYGKHYPIASIEDPFAEDDWAAWNKFTVEHGNFQIVGDDLLVTNPARVQMAMDKNACNSVLIKVNQIGTLTETFKTIKMAQEKGWGVMASHRSGETEDTFIADLVVGLNCKQIKTGAPCRSERLCKYNQLMRIEEELGNIPYAGKNWRNSTA
[2]
  fold more complex after glucose starvation than in regular medium: 3 fold
